According to publication PMC11922929, “Functional recoding of Chlamydomonas reinhardtii thioredoxin type-h into photosynthetic type-f by switching selectivity determinants” (Frontiers in Plant Science, 2025):

How the values were obtained:
[1] = target: T1, CrFBPase (Chlamydomonas reinhardtii, UniProt A8IKQ0); test: coupled spectrophotometric assay of FBP hydrolysis (NADP+ reduction at […] nm); format: biochemical; details: 0.6 mM FBP, 10 mM MgCl2, 30 mM Tris pH 7.9, 20 °C; FBPase pre-incubated with 1 mM DTT, with or without 50 µM thioredoxin
T1 construct: gene CHLRE_12g510650v5; recombinant, N-terminal poly-histidine tag, pET plasmid, E. coli BL21(DE3), Ni-NTA purified
T1 sequence (A8IKQ0 29-415): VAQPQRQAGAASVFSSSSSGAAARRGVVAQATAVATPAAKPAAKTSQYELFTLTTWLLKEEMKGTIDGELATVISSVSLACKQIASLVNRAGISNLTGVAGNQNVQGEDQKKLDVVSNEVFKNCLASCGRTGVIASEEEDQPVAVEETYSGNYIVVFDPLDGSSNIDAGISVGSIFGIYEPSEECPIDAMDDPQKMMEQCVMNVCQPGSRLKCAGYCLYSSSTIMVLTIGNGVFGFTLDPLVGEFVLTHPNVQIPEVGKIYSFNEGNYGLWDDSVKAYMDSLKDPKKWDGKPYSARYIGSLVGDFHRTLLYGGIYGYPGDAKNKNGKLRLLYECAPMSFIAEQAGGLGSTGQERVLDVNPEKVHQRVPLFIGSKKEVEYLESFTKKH

[2] = target: Chlamydomonas reinhardtii fructose-1,6-bisphosphatase (CrFBPase) (Chlamydomonas reinhardtii)

For `O=P(O)(O)OC[C@H]1OC(O)(COP(=O)(O)O)[C@@H](O)[C@@H]1O` (stereo partly shown) [FBP], the “coupled spectrophotometric assay of FBP hydrolysis (NADP+ reduction at 340 nm)” value [1] was “The activity of FBPase was determined in the direction of FBP hydrolysis”.

“Chlamydomonas reinhardtii thioredoxin f2 (CrTRXf2) (enzyme)” was tested, and the FBPase activity (coupled spectrophotometric assay, NADP+ reduction at 340 nm, initial velocity) after 5 min pre-incubation with 1 mM DTT and 50 µM TRXf2, 20°C, n=4 [2] was 106 ΔAbs/min and the fold increase of FBPase activity after pre-incubation with 1 mM DTT and 50 µM TRXf2 [2] was 6 fold.

With “TRXχ1 (chimera 1; TRXh1-K49,K69,K70,K78,K99) (from UniProt P80028 1-113) (enzyme)” the FBPase activity (coupled spectrophotometric assay, NADP+ reduction at 340 nm, initial velocity) after 5 min pre-incubation with 1 mM DTT and 50 µM TRXχ1, 20°C, n=4 [2] was 172 ΔAbs/min and the fold increase of FBPase activity after pre-incubation with 1 mM DTT and 50 µM TRXχ1 [2] was 9.8 fold.

B1: Chlamydomonas reinhardtii thioredoxin h1 (CrTRXh1) (enzyme)
chain: MGGSVIVIDSKAAWDAQLAKGKEEHKPIVVDFTATWCGPCKMIAPLFETLSNDYAGKVIFLKVDVDAVAAVAEAAGITAMPTFHVYKDGVKADDLVGASQDKLKALVAKHAAA
In the case of B1, the FBPase activity (coupled spectrophotometric assay, NADP+ reduction at 340 nm, initial velocity) after 5 min pre-incubation with 1 mM DTT and 50 µM TRXh1, 20°C, n=4 [2] is reported as 59 ΔAbs/min and the fold increase of FBPase activity after pre-incubation with 1 mM DTT and 50 µM TRXh1 [2] is reported as 3.4 fold.
